Source: paper PMC8124061
Values joined by “and” are separate entries in the source; they are usually repeats but may differ in a detail not shown here. Equal values may be shown once.

Experiments:
[1] = target: F1FO ATP synthase (complex V) of Euglena gracilis mitochondria (Euglena gracilis (endogenous in mitochondria)); test: native gel or EMSA; BN-PAGE, 3-10% acrylamide gradient, of mitochondria solubilised with DDM 4.0 g/g protein (3.2% w/v), 4 °C, pH 8.4, 100 mM NaCl; Coomassie and in-gel NADH-dehydrogenase and ATPase activity
[2] = target: F1FO ATP synthase (complex V) of Euglena gracilis mitochondria (Euglena gracilis (endogenous in mitochondria)); test: as above; remark: listed apart in the source
[3] = target: F1FO ATP synthase (complex V) of Euglena gracilis mitochondria (Euglena gracilis (endogenous in mitochondria)); test: native gel or EMSA; BN-PAGE, 3-10% acrylamide gradient with 0.05% digitonin, of mitochondria solubilised with digitonin 8.0 g/g protein (6.4% w/v; up to 12 g/g), 4 °C; Coomassie and in-gel NADH-dehydrogenase and ATPase activity
[4] = target: F1FO ATP synthase (complex V) of Euglena gracilis mitochondria (Euglena gracilis (endogenous in mitochondria)); test: native gel or EMSA; purified dimeric ATP synthase incubated with DDM at room temperature for 10 min; species assigned by size; kind of gel not told in the legend
[5] = target: F1FO ATP synthase (complex V) of Euglena gracilis mitochondria (Euglena gracilis (endogenous in mitochondria)); test: native gel or EMSA; two-dimensional BN/BN-PAGE of digitonin-solubilised mitochondria; second BN-PAGE with 0.02% DDM in the cathode buffer, which dissociates the supercomplexes; NADH-dehydrogenase activity stain
[6] = target: dimeric ubiquinol:cytochrome c oxidoreductase (complex III, III2) of Euglena gracilis mitochondria (Euglena gracilis (endogenous in mitochondria)); test: native gel or EMSA; two-dimensional BN/SDS Tricine-PAGE (12%) of digitonin-extracted complexes; subunits told by their electrophoretic profile

stoichiometry N [1]	stoichiometry N [2]	stoichiometry N [3]	stoichiometry N [4]	stoichiometry N [5]	stoichiometry N [6]	Substance
4	2	2 and 4	2	4	–	F1FO ATP synthase (complex V) of Euglena gracilis mitochondria
–	–	–	–	–	1 and 2	cytochrome c oxidase (complex IV) of Euglena gracilis mitochondria
